According to patent US20260167699A1 (Chugai, published 2026):

B1: GpH7-A5/GpH7-B3 variant E269_13S/GpL16-k0 (antibody, human IgG1, kappa)
heavy 1: not shown
heavy 2: not shown
light: DIVMTQSPLSLPVTPGEPASISCQASESLVHSNRNTYLHWYLQKPGQSPQLLIYKVSNRFSGVPDRFSGSGSGTDFTLKISRVEAEDVGVYYCSQNTHVPPTFGQGTKVEIERTVAAPSVFIFPPSDEQLKSGTASVVCLLNNFYPREAKVQWKVDNALQSGNSQESVTEQDSKDSTYSLSSTLTLSKADYEKHKVYACEVTHQGLSSPVTKSFNRGEC
notes: copies: 1 + 1 + 2
B2: GpH7-A5/GpH7-B3 variant G236_15Y/GpL16-k0 (antibody, human IgG1, kappa)
heavy 1: not shown
heavy 2: not shown
light: B1 light
notes: copies: 1 + 1 + 2
B3: GpH7-A5/GpH7-B3 variant G236_20W/GpL16-k0 (antibody, human IgG1, kappa)
heavy 1: not shown
heavy 2: not shown
light: B1 light
notes: copies: 1 + 1 + 2
B4: GpH7-A5/GpH7-B3 variant E333_04F/GpL16-k0 (antibody, human IgG1, kappa)
heavy 1: not shown
heavy 2: not shown
light: B1 light
notes: copies: 1 + 1 + 2
B5: GpH7-A5/GpH7-B3 variant E333_08L/GpL16-k0 (antibody, human IgG1, kappa)
heavy 1: not shown
heavy 2: not shown
light: B1 light
notes: copies: 1 + 1 + 2
B6: GpH7-A5/GpH7-B3 variant E269_18N/GpL16-k0 (antibody, human IgG1, kappa)
heavy 1: not shown
heavy 2: not shown
light: B1 light
notes: copies: 1 + 1 + 2
B7: GpH7-A5/GpH7-B3 variant E333_15Y/GpL16-k0 (antibody, human IgG1, kappa)
heavy 1: not shown
heavy 2: not shown
light: B1 light
notes: copies: 1 + 1 + 2
B8: GpH7-A5/GpH7-B3 variant E333_02A/GpL16-k0 (antibody, human IgG1, kappa)
heavy 1: not shown
heavy 2: not shown
light: B1 light
notes: copies: 1 + 1 + 2
B9: GpH7-A5/GpH7-B3 variant E333_18N/GpL16-k0 (antibody, human IgG1, kappa)
heavy 1: not shown
heavy 2: not shown
light: B1 light
notes: copies: 1 + 1 + 2
B10: GpH7-A5/GpH7-B3 variant G236_04F/GpL16-k0 (antibody, human IgG1, kappa)
heavy 1: not shown
heavy 2: not shown
light: B1 light
notes: copies: 1 + 1 + 2
B11: GpH7-A5/GpH7-B3 variant E269_14T/GpL16-k0 (antibody, human IgG1, kappa)
heavy 1: not shown
heavy 2: not shown
light: B1 light
notes: copies: 1 + 1 + 2
B12: GpH7-A5/GpH7-B3 variant E269_15Y/GpL16-k0 (antibody, human IgG1, kappa)
heavy 1: not shown
heavy 2: not shown
light: B1 light
notes: copies: 1 + 1 + 2
B13: GpH7-A5/GpH7-B3 variant E333_13S/GpL16-k0 (antibody, human IgG1, kappa)
heavy 1: not shown
heavy 2: not shown
light: B1 light
notes: copies: 1 + 1 + 2
B14: GpH7-A5/GpH7-B3 variant G236_02A/GpL16-k0 (antibody, human IgG1, kappa)
heavy 1: not shown
heavy 2: not shown
light: B1 light
notes: copies: 1 + 1 + 2
B15: GpH7-A5/GpH7-B3 variant G237_03V/GpL16-k0 (antibody, human IgG1, kappa)
heavy 1: not shown
heavy 2: not shown
light: B1 light
notes: copies: 1 + 1 + 2
B16: GpH7-A5/GpH7-B3 variant I332_01G/GpL16-k0 (antibody, human IgG1, kappa)
heavy 1: not shown
heavy 2: not shown
light: B1 light
notes: copies: 1 + 1 + 2
B17: GpH7-A5/GpH7-B3 variant G236_10E/GpL16-k0 (antibody, human IgG1, kappa)
heavy 1: not shown
heavy 2: not shown
light: B1 light
notes: copies: 1 + 1 + 2
B18: GpH7-A5/GpH7-B3 variant G237_14T/GpL16-k0 (antibody, human IgG1, kappa)
heavy 1: not shown
heavy 2: not shown
light: B1 light
notes: copies: 1 + 1 + 2
B19: GpH7-A5/GpH7-B3 variant I332_09D/GpL16-k0 (antibody, human IgG1, kappa)
heavy 1: not shown
heavy 2: not shown
light: B1 light
notes: copies: 1 + 1 + 2
B20: GpH7-A5/GpH7-B3 variant E333_03V/GpL16-k0 (antibody, human IgG1, kappa)
heavy 1: not shown
heavy 2: not shown
light: B1 light
notes: copies: 1 + 1 + 2
B21: GpH7-A5/GpH7-B3 variant E333_01G/GpL16-k0 (antibody, human IgG1, kappa)
heavy 1: not shown
heavy 2: not shown
light: B1 light
notes: copies: 1 + 1 + 2
B22: GpH7-A5/GpH7-B3 variant H268_04F/GpL16-k0 (antibody, human IgG1, kappa)
heavy 1: not shown
heavy 2: not shown
light: B1 light
notes: copies: 1 + 1 + 2
B23: GpH7-A5/GpH7-B3 variant E333_14T/GpL16-k0 (antibody, human IgG1, kappa)
heavy 1: not shown
heavy 2: not shown
light: B1 light
notes: copies: 1 + 1 + 2
B24: GpH7-A5/GpH7-B3 variant H268_08L/GpL16-k0 (antibody, human IgG1, kappa)
heavy 1: not shown
heavy 2: not shown
light: B1 light
notes: copies: 1 + 1 + 2
B25: GpH7-A5/GpH7-B3 variant H268_15Y/GpL16-k0 (antibody, human IgG1, kappa)
heavy 1: not shown
heavy 2: not shown
light: B1 light
notes: copies: 1 + 1 + 2
B26: GpH7-A5/GpH7-B3 variant I332_04F/GpL16-k0 (antibody, human IgG1, kappa)
heavy 1: not shown
heavy 2: not shown
light: B1 light
notes: copies: 1 + 1 + 2
B27: GpH7-A5/GpH7-B3 variant I332_05P/GpL16-k0 (antibody, human IgG1, kappa)
heavy 1: not shown
heavy 2: not shown
light: B1 light
notes: copies: 1 + 1 + 2
B28: GpH7-A5/GpH7-B3 variant I332_03V/GpL16-k0 (antibody, human IgG1, kappa)
heavy 1: not shown
heavy 2: not shown
light: B1 light
notes: copies: 1 + 1 + 2
B29: GpH7-A5/GpH7-B3 variant E333_09D/GpL16-k0 (antibody, human IgG1, kappa)
heavy 1: not shown
heavy 2: not shown
light: B1 light
notes: copies: 1 + 1 + 2
B30: GpH7-A5/GpH7-B3 variant E333_07I/GpL16-k0 (antibody, human IgG1, kappa)
heavy 1: not shown
heavy 2: not shown
light: B1 light
notes: copies: 1 + 1 + 2

Biological target: T1, FcγRIIIa (human, UniProt P08637 17-208)
T1 construct: extracellular domain; also called 3a; FcγRIIIa extracellular domain
Experiment: SPR (Biacore);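 further: antibody variants captured on an SPR sensor chip, with FcγRIIIa passed over as analyte in HBS-EP+ buffer at 25 °C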
Experimental: The antibody of interest was analyzed for its interaction with FcγR using a BiaCore™ T100, BiaCore™ A100, or BiaCore™ 4000 surface plasmon resonance system (GE Healthcare Japan Corp.). The running buffer used was HBS-EP+ (GE Healthcare Japan Corp.). The assay temperature was set to 25° C. The sensor chips used were: a chip prepared by immobilizing antigenic peptides onto Series S Sensor Chip CM5 (GE Healthcare Japan Corp.) by the amine coupling method; a chip prepared by immobilizing antigenic peptides biotinylated in advance onto Series S Sensor Chip SA (certified) (GE Healthcare Japan Corp.) through their interaction; a chip prepared by immobilizing protein L (ACTIGEN, BioVision, Inc.) onto Series S Sensor Chip CM5 (GE Healthcare Japan Corp.); and a chip prepared by immobilizing protein A/G (Thermo Fisher Scientific K.K.) onto Series S Sensor Chip CM5 (GE Healthcare Japan Corp.). The antibody of interest was captured onto any of these chips and allowed to interact with FcγR diluted with a running buffer. The antibody captured on the chip was washed off through the reaction of 10 mM glycine-HCl (pH 1.5) to regenerate the chip, which was repetitively used.

T1 sequence (P08637 other isoform, or with tags, fused parts or gaps): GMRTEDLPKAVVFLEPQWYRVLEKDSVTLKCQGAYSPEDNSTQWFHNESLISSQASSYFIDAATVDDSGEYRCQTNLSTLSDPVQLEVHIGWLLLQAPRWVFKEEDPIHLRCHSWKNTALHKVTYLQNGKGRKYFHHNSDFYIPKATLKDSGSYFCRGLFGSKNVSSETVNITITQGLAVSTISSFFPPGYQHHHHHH

In order of rising “He/Con 3a” value:
1. B18  50.5 % of GpH7-A5/GpH7-B3/GpL16-k0
2. B15  51.3 % of GpH7-A5/GpH7-B3/GpL16-k0
3. B12  51.5 % of GpH7-A5/GpH7-B3/GpL16-k0
4. B27  56.3 % of GpH7-A5/GpH7-B3/GpL16-k0
5. B6  57.2 % of GpH7-A5/GpH7-B3/GpL16-k0
6. B11  59.7 % of GpH7-A5/GpH7-B3/GpL16-k0
7. B1  62.1 % of GpH7-A5/GpH7-B3/GpL16-k0
8. B17  65.8 % of GpH7-A5/GpH7-B3/GpL16-k0
9. B24  75.9 % of GpH7-A5/GpH7-B3/GpL16-k0
10. B9  76.2 % of GpH7-A5/GpH7-B3/GpL16-k0
11. B14  77 % of GpH7-A5/GpH7-B3/GpL16-k0
12. B10  81 % of GpH7-A5/GpH7-B3/GpL16-k0
13. B28  85.2 % of GpH7-A5/GpH7-B3/GpL16-k0
14. B26  89.3 % of GpH7-A5/GpH7-B3/GpL16-k0
15. B22  96 % of GpH7-A5/GpH7-B3/GpL16-k0
16. B25  96.5 % of GpH7-A5/GpH7-B3/GpL16-k0
17. B23  100 % of GpH7-A5/GpH7-B3/GpL16-k0
18. B30  100 % of GpH7-A5/GpH7-B3/GpL16-k0
19. B7  101 % of GpH7-A5/GpH7-B3/GpL16-k0
20. B16  101 % of GpH7-A5/GpH7-B3/GpL16-k0
21. B21  101 % of GpH7-A5/GpH7-B3/GpL16-k0
22. B5  102 % of GpH7-A5/GpH7-B3/GpL16-k0
23. B4  104 % of GpH7-A5/GpH7-B3/GpL16-k0
24. B13  106 % of GpH7-A5/GpH7-B3/GpL16-k0
25. B20  106 % of GpH7-A5/GpH7-B3/GpL16-k0
26. B8  108 % of GpH7-A5/GpH7-B3/GpL16-k0
27. B2  112 % of GpH7-A5/GpH7-B3/GpL16-k0
28. B29  115 % of GpH7-A5/GpH7-B3/GpL16-k0
29. B3  126 % of GpH7-A5/GpH7-B3/GpL16-k0
30. B19  189 % of GpH7-A5/GpH7-B3/GpL16-k0
